B1: Mts1 (S100A4) protein, recombinant human (natural protein)
chain: not shown
modifications: Alexa Fluor 633 label (only in the thermophoresis with Tag7, 17.1, 17.1A and 17.1B)
notes: cDNA subcloned into pQE-30; PDB 3NCF is printed for Mts1 but may be a misprint; also called metastasin 1; full-sized Mts1; source: E. coli M15 (pREP4), pQE-30, purified (HisTrap FF)
B2: peptide 17.1A of Tag7 (PGLYRP1) (peptide)
peptide: RSNYVLKG
notes: source: synthetic peptide (Fmoc, HPLC purified)
B3: peptide 17.1B of Tag7 (PGLYRP1) (peptide)
peptide: HRDVQRT
notes: as for B2

Data set [1] deals with the molecule itself. Briefly: SDS-PAGE and Western blot; eluate of recombinant Mts1 from 17.1-Sepharose resolved by 12% SDS-PAGE and blotted with anti-Mts1; oligomer state read from the band. On the technique in general: In western blotting, separated proteins are transferred to a membrane and probed.
Data set [2] deals with B1. As to the kind of experiment: MST; Mts1 labelled with Alexa Fluor 633 (200 nM), preincubated 20 min in the dark at room temperature with 16 concentrations of Tag7 or peptide; Monolith NT.115, 10% IR laser power; apparent Kd. To be noted: both partners purified.

A word on the stoichiometry N: it is the number of molecules, sites or subunits per partner or assembly. For the molecule B1, in data set [1], the “stoichiometry N” value turned out to be 4.

Regarding B2, in data set [2], the Kd turned out to be 109 nM.

In the case of B3, the Kd in data set [2] amounted to 7.26 nM.

The values are drawn from publication PMC11203719, “Mts1 (S100A4) and Its Peptide Demonstrate Cytotoxic Activity in Complex with Tag7 (PGLYRP1) Peptide” (International Journal of Molecular Sciences, 2024).
